Laboratory results as given in the nanobody polyreactivity screen of Harvey et al. (2022).

Assay: yeast display, Sf9 membrane polyspecificity reagent, FACS + sequencing; frameworks hold sequencing errors
In short: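 In a synthetic yeast display library (Saccharomyces cerevisiae BJ5465), nanobody expression was induced with galactose for 36–48 hours. FACS gates were set low and high (top ~1%) using anti-HA fluorescence for expression and streptavidin fluorescence for binding of the Sf9 membrane reagent. Each polyreactivity label is drawn from the gate of origin.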

**Q.** For “QVQLVESGGGLVQAGGSLRLSCAASGFTFCDYAKGWYRQATGKERELVAAISDNDGSTDYADSVKGRFTISRDNAKNTVYLQMTRLKPEDSAVYYCNAESELPSKEGDYWGLGTQVTVSS”, which “polyreactivity (PSR sort gate)” value is on record?
**A.** low polyreactivity

**Q.** With “QVQLVESGGGLVQAGGSLRLSCAAYGSIRNFYAMGWNRKAPGKERELVPTISSGGNTHYADSVKGRFTISRDNAKNTVYFQMTSLKPEDTAVYYCNKVTIGGFFWYRAYDYWGQGTQVTVSS” as the sequence, how does the “polyreactivity (PSR sort gate)” value read?
**A.** low polyreactivity

**Q.** Which “polyreactivity (PSR sort gate)” value does the source give for “QVQLVESGGGLVQAGGSLRLSCAASGSIFRANVLGWYRKAPGKERELVAAISRGGGTTYYADSVKGRFTISRDNAKNTVYLQMNSLKPEDTAVYYCAALGHYRSNNNVDMDYWGQGTQVTVSS” here?
**A.** high polyreactivity

**Q.** For “QVQLVESGGGLVQAGGSLRLSCAASGRIFLKYTMGWYRQAPGKERELVAAISRGGSTYYADSVKGRFTISRDNAKNTVYLQMNSLKPEDTAVYYCAARRSRPTYYSTGVNYWGQGTQVTVSS”, which “polyreactivity (PSR sort gate)” value is on record?
**A.** high polyreactivity

**Q.** For “QVQLVESGGGLVQAGVSLRLSCAASGRIFPSYAMGWYRQAPGKEREMVAAITSSDSTYYADSVKGRFTISRDNAKNTVYLQMNSLKPDDTAVYYCAAAYSYSGWWWFGYWGQGTQVTVSS”, which “polyreactivity (PSR sort gate)” value is on record?
**A.** high polyreactivity

**Q.** For “QVHLVESGGGLVQAGGSLRLSCAASGRTFVAYAMGWYRQAPAKERELVARISSGGSTYYADSVKGRFTISRDNAKNTVYLQMNSLKPEDTAVYYCAADRGPFFVPWRRYDYWGQGTEVTVSS”, which “polyreactivity (PSR sort gate)” value is on record?
**A.** low polyreactivity

**Q.** Which “polyreactivity (PSR sort gate)” value does the source give for “QVQLVESGGGLVQAGGSLRLSCAASGRTFFVNAMGWYRQAPGKERELVAGISIGGRTSYADSVKGRFTISRDNAKNTVYLQMNSLKPEDTAVYYCATSYFPWSRKRYGYWGQGTQVTVSS” here?
**A.** high polyreactivity

**Q.** Which “polyreactivity (PSR sort gate)” value does the source give for “QVQLVESGGGLVQAGGSLRLSCAASGRTFFWYAMGWYRQAPGKEREFVADINSRGTSTYADSVKGRFTISRDNAKNTVYLQMNSLKPDDTAVYYCAAYRGHLKRYYYWGQGTQVTVSS” here?
**A.** high polyreactivity

**Q.** For “QVQLVESGGGLVQAGGSLRLSCAASGSIFRYNTMGWYRQAPGKERELVASIRIGGSTYYADSVKGRFTISRDNAKNTVYLQMNSLKPEDTAVYYCAVRPYRSAGGSVTRGAYYYWGQGTQVTVSS”, which “polyreactivity (PSR sort gate)” value is on record?
**A.** high polyreactivity

**Q.** With “QFQLVESGGGLVQAGGSLRLSCAASGRIFGVNAMGWYRPAPGKERELVAAISYRGGHTYADSVKGRFTISRDNAKNTVYLQMNSLKPEDTAVYYCAARNRSSTGLGSRYGYWGQGTQVTVSS” as the sequence, how does the “polyreactivity (PSR sort gate)” value read?
**A.** high polyreactivity

**Q.** For “QVQLVESGGGLVQAGGSLRLSCAASGRIFGPYTMGWYRQAPGKERELVARISRRGGSTYYADSVKGRFTISRDNAKNTVYLQMNSLKPEDTAVYYCARSQAVYDGWFAKFGYWGQGTQVTVSS”, which “polyreactivity (PSR sort gate)” value is on record?
**A.** low polyreactivity

**Q.** Which “polyreactivity (PSR sort gate)” value does the source give for “QVQLVESGGGLVQAGGSLRLTCAASGITFKFYAMGWYRQAPGKESELVAAITSGGGSTYYADSVKGRFTISRDNAKNTVYLQMNILKPEDTAVYYCNTYSIAYYSPCYDYWGQGTQVNVSS” here?
**A.** high polyreactivity

**Q.** For “QVQLVESGGGLVQAGGSLRLSCAASGRIFDLNAMGWYRPAPGKERELVAAITNTGSTNYADSVKGRFTISRDNAKNTVYLQMNSLKPEDTAVYYCARTYWLRYYGYRDDEYDYWGQGTQVTVSS”, which “polyreactivity (PSR sort gate)” value is on record?
**A.** low polyreactivity

**Q.** Which “polyreactivity (PSR sort gate)” value does the source give for “QVQLVESGGGLVQAGGSLRLSCAASGLTFRYYAMGWYRQAPGKERELVAAITRRGSTYYADSVKGRFTISRDNAKNTVYLQMNSLKPEDTAVYFCATVTGFHSSPLRDLDYWGHGTQVTVSS” here?
**A.** high polyreactivity

**Q.** With “QVQIVESGGGLVQAGGSLRLSCAASGFIFFAYAMGWYRQAPGKERELFAAISRTGGSTYYADSVKGRFTISRDNAKNTVYLQMNSLKPEDTAVYYCAADGGYYGRDYWGQGTQVTVSS” as the sequence, how does the “polyreactivity (PSR sort gate)” value read?
**A.** high polyreactivity

**Q.** Which “polyreactivity (PSR sort gate)” value does the source give for “QVQLVESGGGLVQAGGSLRLSCAASGNTLRTYGMGWYRQAPGKEREFVAAITYSGGSTYYADSVKGRFTISRDNAKNTVYLQMNSLKPEDTAVYYCAARYRSHYRRITPYDSWGQGTQVTVSS” here?
**A.** high polyreactivity

**Q.** Which “polyreactivity (PSR sort gate)” value does the source give for “QVQLVESGGGLVQAGGSLRLSCAASGFIISRNAMGWYRQAPGKERELVAAIRTRTGSTYYADSVKGRFTISRDNAKNTVYLQMNSLKPEDTAVYYCNAYPYVNGRYGSWGQGTQVTVSS” here?
**A.** high polyreactivity

**Q.** With “QDQLVESGGGLVQAGGSLRLSCAASGRTFVHYVMGWYRQAPGKERELVAAITSSGGSTYADSVKGRFTISRDNAKNTVYLQMNSLKPEDTAVYYCAADYLDGVGDVEHDYWGQGTQVTVSS” as the sequence, how does the “polyreactivity (PSR sort gate)” value read?
**A.** low polyreactivity

**Q.** For “QVQLVESGGGLVQAGGSLRLSCGATGTTFYYYAMGWYRQAPGKERELVPGINTSGGNTYYADSVKGRFTISRDNAKNTVYLQMNSLKPEDTAVYYCAVEGGSLHYAWYLWGYRSGGEYWGQGTQVTVSS”, which “polyreactivity (PSR sort gate)” value is on record?
**A.** high polyreactivity

**Q.** For “QVQIVESGGGLVQAGGSLRLSCAASGRIFKLYAMGWSRQAPGKERELVAAITRRGGSTSYADSVKGRFTISRDNAKNTVYLQMNSLKPEDTAVYYCAASYTGRTVVQGYEYWGQGTQVTVSS”, which “polyreactivity (PSR sort gate)” value is on record?
**A.** high polyreactivity

**Q.** Which “polyreactivity (PSR sort gate)” value does the source give for “QVQLVESGGGLVQAGGSLRLSCAASGFTFQHNSMGWYRQAPGKERELVAAISLGGSTNYADSVKGRFTISRDNAKNSVYLQMNSLKPEDSAVYYCAAYDWRVLWGYDYWGQGTQVTVSS” here?
**A.** low polyreactivity

**Q.** With “QGQLVESGGGLVQAGGSLRLSCAASGRIFYGNVMGWYRQAPGKERELVADISYDGGSTYYADSVKGRFTISRDNAKNTVYLQMNSLKPEDTAVYYCNKREVFIYGTTYDYWGQGTQVTVSS” as the sequence, how does the “polyreactivity (PSR sort gate)” value read?
**A.** low polyreactivity

**Q.** Which “polyreactivity (PSR sort gate)” value does the source give for “QDQLVESGGGLVQAGGSLRLSCAASGRIFRYYAMGWYRQAPGKERELVAGMSGSGGSTYYADSVKGRFTISRDNAKNTVYLQMNSLKPEDTAVYYCAADYVRVGSLHGVYTYKKYDYWGQGTQVTVSS” here?
**A.** high polyreactivity

**Q.** Which “polyreactivity (PSR sort gate)” value does the source give for “QVQLVESGGGLDQAGGSLRLSCAASGSTFANNAMGWYREAPGKERELVAAISSGGSTNYADSVKGRFTISRDNAKNTGYLQMNSLKPEDTAVYYCNADAYDEIKYGYWGQGTQVTVSS” here?
**A.** low polyreactivity

**Q.** Which “polyreactivity (PSR sort gate)” value does the source give for “QVQLVESGGGLFQAGGSLRLSCAASGITLYLYVMGWYRQAPGIEREFVAAIRWSGGSTYYADSVKGRFTISRDNAKYTVYLLMNSLKPEDTAVYYCAVTYVGHVYEYYYWGQGTQVTVSS” here?
**A.** low polyreactivity

**Q.** Which “polyreactivity (PSR sort gate)” value does the source give for “QVQLVDSGGGLVQAAGSLRLSCAASGSTFVTYAMGGYRTAPGKERELVAAISSGAGTNYADSVKGRFTISRDNAKNTVYLQMNSLKPEDTAVDYCAADKAVGDSTRYYYWGQGTQVTVSS” here?
**A.** low polyreactivity

**Q.** Which “polyreactivity (PSR sort gate)” value does the source give for “QVQLVESGGGLVQAGGSLRLSCAASGRIFDVYAKGWYRQAPGKERELFAAISKSDGRTYYADSVKGRFTISRDNAKNTVYLQMNSLKPEDTAVYYCNVRAYGARAGTKMYYWGQGTQVNVSS” here?
**A.** low polyreactivity

**Q.** Which “polyreactivity (PSR sort gate)” value does the source give for “QDQLVESGGGLVQAGRSLRLSCAASGYTFRFNAMGWYRQAPGKEREFVAAIDFGGAGTYYADSVKGRFTISRDNAKNTVSLQMNSLKPEDTAVYYCNARDGVTTEFDYWGQGTQVNVSS” here?
**A.** low polyreactivity

**Q.** With “QVQLVESGGGLVHAGGRLRLRCAASGSIFGYYAMAWYRHAPGKETELVAAISRRGGRTYYADSVKGRFTISRDNAKNTVYLQMNSLKPEDTAVYYCAKDRYYSELQYPYYRGDYWGQGTQVTVSS” as the sequence, how does the “polyreactivity (PSR sort gate)” value read?
**A.** high polyreactivity

**Q.** For “QVQLEESGRGLVQAGGSLRLSCAASGSIFGVYTMGWYRPAPRKDRELVAAISASGGRTYYADSVKGRFTISRDTAKITVYLQMNSLKPEDTAVYYCAARASKGYGWYDYWGQGTQVTVSS”, which “polyreactivity (PSR sort gate)” value is on record?
**A.** high polyreactivity
